Results taken from PMC13397619.

B1: NLV2 TCR alpha chain (CDR3α only) (parent)
chain: AGPMKTSYDKVI
partner: MLVPMVATV

Variants of: B1
Assay: T-Switch: Jurkat TCRβ−/− cells expressing a CDR3 saturation-mutagenesis library, stained with two peptide-HLA-A*02:01 tetramers (original and novel peptide) plus anti-CD3, FACS-sorted into four gates, gDNA sequenced
Details: with HLA-A*02:01 with peptide … (NLV 3-1, the novel peptide), tetramers 1 µg/mL, 30 min on ice, SP, DP and SW gates expanded about 10 days between rounds ('two to three rounds of selection' in the Methods), gate SW: higher = more of the variant in the gate that binds the novel peptide and not the original one = switched binding. Fold enrichment of the CDR3 variant in one FACS gate of a two-tetramer stain, unresolved parent, parent is a CDR3 fragment, scale: fold enrichment, numbering: sequential-on-construct, sequence starts at 1
For […] (CDR3 as printed); K10Y derived by comparing it with the table's wild-type CDR3 AGPMKTSYDKVI, the enrichment was 0. Variant […] (CDR3 as printed); I12K derived by comparing it with the table's wild-type CDR3 AGPMKTSYDKVI has an enrichment of 0. […] (CDR3 as printed); D9W derived by comparing it with the table's wild-type CDR3 AGPMKTSYDKVI gave an enrichment of 0. Work on […] (CDR3 as printed); M4A derived by comparing it with the table's wild-type CDR3 AGPMKTSYDKVI yielded an enrichment of 0. With […] (CDR3 as printed); K10C derived by comparing it with the table's wild-type CDR3 AGPMKTSYDKVI the enrichment was 0. […] (CDR3 as printed); A1S derived by comparing it with the table's wild-type CDR3 AGPMKTSYDKVI gave an enrichment of 0. […] (CDR3 as printed); G2W derived by comparing it with the table's wild-type CDR3 AGPMKTSYDKVI was tested, and the enrichment was 0. Work on […] (CDR3 as printed); K10A derived by comparing it with the table's wild-type CDR3 AGPMKTSYDKVI yielded an enrichment of 0. […] (CDR3 as printed); I12T derived by comparing it with the table's wild-type CDR3 AGPMKTSYDKVI showed an enrichment of 0. Work on […] (CDR3 as printed); K5N derived by comparing it with the table's wild-type CDR3 AGPMKTSYDKVI yielded an enrichment of 0. […] (CDR3 as printed); A1C derived by comparing it with the table's wild-type CDR3 AGPMKTSYDKVI showed an enrichment of 0. With […] (CDR3 as printed); K10T derived by comparing it with the table's wild-type CDR3 AGPMKTSYDKVI the enrichment was 0. For […] (CDR3 as printed); A1Y derived by comparing it with the table's wild-type CDR3 AGPMKTSYDKVI, the enrichment was 0.533. In the case of […] (CDR3 as printed); A1H derived by comparing it with the table's wild-type CDR3 AGPMKTSYDKVI, the enrichment is reported as 0. With […] (CDR3 as printed); G2R derived by comparing it with the table's wild-type CDR3 AGPMKTSYDKVI the enrichment was 0. Variant […] (CDR3 as printed); K10F derived by comparing it with the table's wild-type CDR3 AGPMKTSYDKVI has an enrichment of 0. […] (CDR3 as printed); G2E derived by comparing it with the table's wild-type CDR3 AGPMKTSYDKVI gave an enrichment of 0. Work on […] (CDR3 as printed); M4D derived by comparing it with the table's wild-type CDR3 AGPMKTSYDKVI yielded an enrichment of 0. […] (CDR3 as printed); D9Y derived by comparing it with the table's wild-type CDR3 AGPMKTSYDKVI gave an enrichment of 0. In the case of […] (CDR3 as printed); A1K derived by comparing it with the table's wild-type CDR3 AGPMKTSYDKVI, the enrichment is reported as 1.01. […] (CDR3 as printed); G2V derived by comparing it with the table's wild-type CDR3 AGPMKTSYDKVI showed an enrichment of 0. For […] (CDR3 as printed); D9F derived by comparing it with the table's wild-type CDR3 AGPMKTSYDKVI, the enrichment was 0. […] (CDR3 as printed); D9K derived by comparing it with the table's wild-type CDR3 AGPMKTSYDKVI gave an enrichment of 0. For […] (CDR3 as printed); D9E derived by comparing it with the table's wild-type CDR3 AGPMKTSYDKVI, the enrichment was 0. […] (CDR3 as printed); D9P derived by comparing it with the table's wild-type CDR3 AGPMKTSYDKVI was tested, and the enrichment was 0. With […] (CDR3 as printed); K10G derived by comparing it with the table's wild-type CDR3 AGPMKTSYDKVI the enrichment was 0. Work on […] (CDR3 as printed); A1I derived by comparing it with the table's wild-type CDR3 AGPMKTSYDKVI yielded an enrichment of 0. In the case of […] (CDR3 as printed); I12G derived by comparing it with the table's wild-type CDR3 AGPMKTSYDKVI, the enrichment is reported as 0. Variant […] (CDR3 as printed); G2F derived by comparing it with the table's wild-type CDR3 AGPMKTSYDKVI has an enrichment of 0. […] (CDR3 as printed); A1Q derived by comparing it with the table's wild-type CDR3 AGPMKTSYDKVI gave an enrichment of 0. For […] (CDR3 as printed); K5L derived by comparing it with the table's wild-type CDR3 AGPMKTSYDKVI, the enrichment was 0. Variant […] (CDR3 as printed); I12A derived by comparing it with the table's wild-type CDR3 AGPMKTSYDKVI has an enrichment of 0. […] (CDR3 as printed); D9I derived by comparing it with the table's wild-type CDR3 AGPMKTSYDKVI was tested, and the enrichment was 0. […] (CDR3 as printed); G2A derived by comparing it with the table's wild-type CDR3 AGPMKTSYDKVI was tested, and the enrichment was 0. For […] (CDR3 as printed); D9C derived by comparing it with the table's wild-type CDR3 AGPMKTSYDKVI, the enrichment was 0. […] (CDR3 as printed); A1R derived by comparing it with the table's wild-type CDR3 AGPMKTSYDKVI was tested, and the enrichment was 0. In the case of […] (CDR3 as printed); K10W derived by comparing it with the table's wild-type CDR3 AGPMKTSYDKVI, the enrichment is reported as 0. […] (CDR3 as printed); I12H derived by comparing it with the table's wild-type CDR3 AGPMKTSYDKVI was tested, and the enrichment was 0. In the case of […] (CDR3 as printed); K5P derived by comparing it with the table's wild-type CDR3 AGPMKTSYDKVI, the enrichment is reported as 0. In the case of […] (CDR3 as printed); A1W derived by comparing it with the table's wild-type CDR3 AGPMKTSYDKVI, the enrichment is reported as 0. With […] (CDR3 as printed); I12S derived by comparing it with the table's wild-type CDR3 AGPMKTSYDKVI the enrichment was 0. For […] (CDR3 as printed); G2Q derived by comparing it with the table's wild-type CDR3 AGPMKTSYDKVI, the enrichment was 0. […] (CDR3 as printed); M4C derived by comparing it with the table's wild-type CDR3 AGPMKTSYDKVI gave an enrichment of 0. In the case of […] (CDR3 as printed); D9T derived by comparing it with the table's wild-type CDR3 AGPMKTSYDKVI, the enrichment is reported as 0. […] (CDR3 as printed); I12P derived by comparing it with the table's wild-type CDR3 AGPMKTSYDKVI showed an enrichment of 0. Work on […] (CDR3 as printed); K10D derived by comparing it with the table's wild-type CDR3 AGPMKTSYDKVI yielded an enrichment of 0. In the case of […] (CDR3 as printed); D9S derived by comparing it with the table's wild-type CDR3 AGPMKTSYDKVI, the enrichment is reported as 0. Work on […] (CDR3 as printed); A1F derived by comparing it with the table's wild-type CDR3 AGPMKTSYDKVI yielded an enrichment of 0. Variant […] (CDR3 as printed); I12C derived by comparing it with the table's wild-type CDR3 AGPMKTSYDKVI has an enrichment of 0. Variant […] (CDR3 as printed); D9V derived by comparing it with the table's wild-type CDR3 AGPMKTSYDKVI has an enrichment of 0. For […] (CDR3 as printed); G2N derived by comparing it with the table's wild-type CDR3 AGPMKTSYDKVI, the enrichment was 0. For […] (CDR3 as printed); A1P derived by comparing it with the table's wild-type CDR3 AGPMKTSYDKVI, the enrichment was 0. Work on […] (CDR3 as printed); K10H derived by comparing it with the table's wild-type CDR3 AGPMKTSYDKVI yielded an enrichment of 0. Work on […] (CDR3 as printed); K5T derived by comparing it with the table's wild-type CDR3 AGPMKTSYDKVI yielded an enrichment of 0. Variant […] (CDR3 as printed); D9N derived by comparing it with the table's wild-type CDR3 AGPMKTSYDKVI has an enrichment of 0. Variant […] (CDR3 as printed); K5V derived by comparing it with the table's wild-type CDR3 AGPMKTSYDKVI has an enrichment of 0. Variant […] (CDR3 as printed); K5Q derived by comparing it with the table's wild-type CDR3 AGPMKTSYDKVI has an enrichment of 0. […] (CDR3 as printed); K5Y derived by comparing it with the table's wild-type CDR3 AGPMKTSYDKVI gave an enrichment of 0. […] (CDR3 as printed); K5M derived by comparing it with the table's wild-type CDR3 AGPMKTSYDKVI gave an enrichment of 0. For […] (CDR3 as printed); I12E derived by comparing it with the table's wild-type CDR3 AGPMKTSYDKVI, the enrichment was 0. […] (CDR3 as printed); I12N derived by comparing it with the table's wild-type CDR3 AGPMKTSYDKVI showed an enrichment of 0. […] (CDR3 as printed); I12R derived by comparing it with the table's wild-type CDR3 AGPMKTSYDKVI showed an enrichment of 0. With […] (CDR3 as printed); I12Y derived by comparing it with the table's wild-type CDR3 AGPMKTSYDKVI the enrichment was 0. In the case of […] (CDR3 as printed); A1E derived by comparing it with the table's wild-type CDR3 AGPMKTSYDKVI, the enrichment is reported as 0. For […] (CDR3 as printed); I12V derived by comparing it with the table's wild-type CDR3 AGPMKTSYDKVI, the enrichment was 0. Work on […] (CDR3 as printed); K5R derived by comparing it with the table's wild-type CDR3 AGPMKTSYDKVI yielded an enrichment of 0. […] (CDR3 as printed); K10L derived by comparing it with the table's wild-type CDR3 AGPMKTSYDKVI gave an enrichment of 0. […] (CDR3 as printed); K5H derived by comparing it with the table's wild-type CDR3 AGPMKTSYDKVI showed an enrichment of 0. […] (CDR3 as printed); K5F derived by comparing it with the table's wild-type CDR3 AGPMKTSYDKVI gave an enrichment of 0. For […] (CDR3 as printed); A1L derived by comparing it with the table's wild-type CDR3 AGPMKTSYDKVI, the enrichment was 0. Variant […] (CDR3 as printed); K5I derived by comparing it with the table's wild-type CDR3 AGPMKTSYDKVI has an enrichment of 0. In the case of […] (CDR3 as printed); G2K derived by comparing it with the table's wild-type CDR3 AGPMKTSYDKVI, the enrichment is reported as 0. For […] (CDR3 as printed); G2S derived by comparing it with the table's wild-type CDR3 AGPMKTSYDKVI, the enrichment was 0. […] (CDR3 as printed); G2Y derived by comparing it with the table's wild-type CDR3 AGPMKTSYDKVI showed an enrichment of 0. For […] (CDR3 as printed); K5W derived by comparing it with the table's wild-type CDR3 AGPMKTSYDKVI, the enrichment was 0. In the case of […] (CDR3 as printed); G2D derived by comparing it with the table's wild-type CDR3 AGPMKTSYDKVI, the enrichment is reported as 0. […] (CDR3 as printed); K10R derived by comparing it with the table's wild-type CDR3 AGPMKTSYDKVI was tested, and the enrichment was 0. Work on […] (CDR3 as printed); D9H derived by comparing it with the table's wild-type CDR3 AGPMKTSYDKVI yielded an enrichment of 0. […] (CDR3 as printed); K10V derived by comparing it with the table's wild-type CDR3 AGPMKTSYDKVI showed an enrichment of 0. With […] (CDR3 as printed); A1V derived by comparing it with the table's wild-type CDR3 AGPMKTSYDKVI the enrichment was 0. […] (CDR3 as printed); K10I derived by comparing it with the table's wild-type CDR3 AGPMKTSYDKVI showed an enrichment of 0. […] (CDR3 as printed); I12W derived by comparing it with the table's wild-type CDR3 AGPMKTSYDKVI showed an enrichment of 0. Variant […] (CDR3 as printed); G2H derived by comparing it with the table's wild-type CDR3 AGPMKTSYDKVI has an enrichment of 0. […] (CDR3 as printed); G2L derived by comparing it with the table's wild-type CDR3 AGPMKTSYDKVI showed an enrichment of 0.
